We go through 14 molecules from patent US20230037815A1 (CULLINAN THERAPEUTICS, published 2023).

One test addresses T1, human CD19 on CHO cells (human, UniProt P15391 20-556).
T1 construct: whole, on cells; also called Cells Expressing Human CD19; CHO cells overexpressing the antigen
T1 sequence (looked up): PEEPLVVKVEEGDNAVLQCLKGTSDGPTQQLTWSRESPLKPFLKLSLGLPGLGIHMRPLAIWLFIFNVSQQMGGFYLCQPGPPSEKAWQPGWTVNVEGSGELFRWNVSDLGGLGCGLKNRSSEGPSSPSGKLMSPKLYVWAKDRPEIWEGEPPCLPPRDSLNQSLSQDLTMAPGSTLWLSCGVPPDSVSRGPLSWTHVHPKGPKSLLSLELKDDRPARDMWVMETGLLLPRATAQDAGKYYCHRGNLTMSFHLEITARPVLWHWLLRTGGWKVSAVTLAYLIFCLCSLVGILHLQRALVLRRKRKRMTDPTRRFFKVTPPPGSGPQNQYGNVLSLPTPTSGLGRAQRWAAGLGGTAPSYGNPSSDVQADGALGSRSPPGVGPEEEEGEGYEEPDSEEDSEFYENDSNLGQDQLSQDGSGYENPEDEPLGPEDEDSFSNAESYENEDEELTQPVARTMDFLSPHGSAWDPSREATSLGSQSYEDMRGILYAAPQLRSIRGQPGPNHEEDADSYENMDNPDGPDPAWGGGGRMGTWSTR
As to the kind of experiment: flow cytometry, CHO cells, 100 nM IgG. As to the method: The binding affinity of the antibodies to CD19 expressed on the cell surface was also measured. Briefly, approximately 100,000 Chinese hamster overy (CHO) cells overexpressing the antigen were washed with wash buffer and incubated with 100 μl 100 nM IgG for 15 minutes at room temperature. Cells were then washed twice with wash buffer and incubated with 100 μl of 1:100 Human-PE for 15 minutes on ice. Cells were then washed twice more with wash buffer and analyzed on a FACS Canto II analyzer (BD Biosciences).

In the next test the target is T2, human CD19 (human, UniProt P15391 20-291, biotinylated in the Biacore assay of Table 11).
T2 construct: also called isolated CD19; Human CD19 Protein
T2 sequence (looked up): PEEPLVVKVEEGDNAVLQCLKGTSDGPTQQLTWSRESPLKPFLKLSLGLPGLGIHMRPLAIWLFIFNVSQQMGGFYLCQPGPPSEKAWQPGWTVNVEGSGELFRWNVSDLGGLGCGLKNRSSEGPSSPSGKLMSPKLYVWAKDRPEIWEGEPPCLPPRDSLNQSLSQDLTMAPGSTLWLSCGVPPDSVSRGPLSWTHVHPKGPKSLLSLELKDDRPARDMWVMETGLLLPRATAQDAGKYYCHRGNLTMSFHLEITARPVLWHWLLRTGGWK
As to the kind of experiment: Octet HTX (ForteBio), IgG on AHC sensor, 1:1 fit. As for the experimental part:
The binding affinity of the antibodies to isolated CD19 was measured by […] using a ForteBio Octet HTX system as previously described (see, e.g., Estep et al, High throughput solution-based measurement of antibody-antigen affinity and epitope binning. Mabs 5(2), 270-278 (2013)). Briefly, ForteBio affinity measurements were performed by loading IgGs on-line onto anti-hIgG Fc Capture (AHC) sensors. The sensors were equilibrated off-line in assay buffer for 30 minutes and then monitored on-line for 60 seconds for baseline establishment. The sensors with loaded IgGs were exposed to 100 nM […] for 3 minutes, and subsequently transferred to assay buffer for 3 minutes for off-rate measurement. All kinetics were analyzed using the 1:1 binding model.

B1: CNG-CD19-7 (antibody, V domains shown)
VH: QVQLQESGPGLVKPSQTLSLTCTVSGGSISTSGMGVGWIRQHPGKGLEWIGHIWWDDDKRYNPALKSRVTISVDTSKNQFSLKLSSVTAADTAVYYCARMELWSYYFDYWGQGTLVTVSS
VL: EIVLTQSPATLSLSPGERATLSCSASSSVSYMHWYQQKPGQAPRLLIYDTSKLASGIPARFSGSGSGTDFTLTISSLEPEDFAVYYCFQGSVYPFTFGQGTKLEIK
notes: tested as IgG; also called parental antibody
One may read the Kd as the concentration at which binding is half-saturated. High values mean lower affinity, low ones higher affinity. Broadly, the koff is the first-order rate constant of dissociation. As to B1, in the test with human CD19 on CHO cells, the “Binding to Cells Expressing Human CD19 (FOB)” value (from here on “Binding”) came out at 71 FOB. In the test with human CD19, this molecule came in with a Kd of 2250 pM and a koff of 0.000396 s⁻¹.

B2: CNG-CD19-701 (antibody, V domains shown)
VH: QVQLQESGPGLVKPSQTLSLTCTVSGGSISTSTMGVGWIRQHPGKGLEWIGFIWWDDDKRYNPNLKSRVTMSVDTSKNQFSLKLSSVTAADTAVYYCARMELWSYYFDYWGQGTLVTVSS
VL: EIVLTQSPATLSLSPGERATLSCSASSSVGYMHWYQQKPGQAPRLLIYDTSKLASGIPARFSGSGSGTDFTLTISSLEPEDFAVYYCFQGSVYPFTFGQGTKLEIK
notes: tested as IgG produced in yeast
As to B2, the “Binding” value with human CD19 on CHO cells worked out at 195 FOB. In the test with human CD19, this molecule showed a Kd of 187 pM and a koff of 7.05e-05 s⁻¹.

B3: CNG-CD19-702 (antibody, V domains shown)
VH: QVQLQESGPGLVKPSQTLSLTCTVSGGSTSTSGMGVSWIRQHPGKGLEWIGHIWWDDDKRYNPVLKSRVTISVDTSKNQFSLKLSSVTAADTAVYYCARMELWSYYFDPWGQGTLVTVSS
VL: EIVLTQSPATLSLSPGERATLSCSASSSVSYMHWYQQKPGQAPRLLIYDTSKLASGIPARFSGSGSGTDFTLTISSLEPEDFAVYYCFQGSVYPFTFGQGTKLEIK
notes: as for B2
As for B3, the “Binding” value with human CD19 on CHO cells was determined as 180 FOB. In the test with human CD19, this molecule had a Kd of 500 pM and a koff of 0.000175 s⁻¹.

B4: CNG-CD19-1 (antibody, V domains shown)
VH: QVQLVQSGAEVKKPGASVKVSCKASGYTFTDYIMHWVRQAPGQGLEWMGYINPYNDGSKYTEKFQGRVTMTSDTSISTAYMELSRLRSDDTAVYYCARGTYYYGPQLFDYWGQGTTVTVSS
VL: DIVMTQTPLSLSVTPGQPASISCKSSQSLETSTGTTYLNWYLQKPGQSPQLLIYRVSKRFSGVPDRFSGSGSGTDFTLKISRVEAEDVGVYYCLQLLEDPYTFGQGTKLEIK
notes: as for B1
Take B4: in the test with human CD19 on CHO cells, the “Binding” value came to 267 FOB. In the test with human CD19, the dissociation constant Kd was 346 pM and the koff was found to be 0.000114 s⁻¹.

B5: CNG-CD19-107 (antibody, V domains shown)
VH: QVQLVQSGAEVKKPGASVKVSCKASGYDFTDYIMHWVRQAPGQGLEWMGYINPYNDGSKYTEKFQHRVTMTSDTSISTAYMELSRLRSDDTAVYYCARGTYYYGPQLFDYWGQGTTVTVSS
VL: DIVMTQTPLSLSVTPGQPASISCKSSQSLETSTGTTYLNWYLQKPGQSPQLLIYRVSRRFSGVPDRFSGSGSGTDFTLKISRVEAEDVGVYYCLQLLEDPYTFGQGTKLEIK
notes: as for B2
Turning to B5, in the test with human CD19 on CHO cells, the “Binding” value was found to be 315 FOB. In the test with human CD19, the Kd amounted to 277 pM and the koff came to 5.71e-05 s⁻¹.

B6: CNG-CD19-106 (antibody, V domains shown)
VH: QVQLVQSGAEVKKPGASVKVSCKASGYDFTDYIMHWVRQAPGQGLEWMGYINPYNDGSEYTEKFQGRVTMTSDTSISTAYMELSRLRSDDTAVYYCARGTYYYGPQLFDYWGQGTTVTVSS
VL: DIVMTQTPLSLSVTPGQPASISCKSSQSLETATGTTYLNWYLQKPGQSPQLLIYRVSRRFSGVPDRFSGSGSGTDFTLKISRVEAEDVGVYYCLQLLEDPYTFGQGTKLEIK
notes: as for B2
On to B6, for which the “Binding” value with human CD19 on CHO cells stood at 354 FOB. Further, in the test with human CD19, the Kd was 189 pM and the koff stood at 0.000114 s⁻¹.

B7: CNG-CD19-109 (antibody, V domains shown)
VH: QVQLVQSGAEVKKPGASVKVSCKASGYDFTDYIVHWVRQAPGQGLEWMGYINPYNDGSLYTEKFQGRVTMTSDTSISTAYMELSRLRSDDTAVYYCARGTYYYGPQLFDYWGQGTTVTVSS
VL: DIVMTQTPLSLSVTPGQPASISCKSSQQLETSTGTTYLNWYLQKPGQSPQLLIYRASKRFSGVPDRFSGSGSGTDFTLKISRVEAEDVGVYYCLQLLEDPYSFGQGTKLEIK
notes: as for B2
On to B7, for which, in the test with human CD19 on CHO cells, the “Binding” value turned out to be 334 FOB. In the test with human CD19, this molecule registered a dissociation constant (Kd) of 144 pM and a koff of 4e-05 s⁻¹.

B8: CNG-CD19-105 (antibody, V domains shown)
VH: QVQLVQSGAEVKKPGASVKVSCKASGYEFTDYIMHWVRQAPGQGLEWMGYINPYNDGSKYTEKFEGRVTMTSDTSISTAYMELSRLRSDDTAVYYCARGTYYYGPELFDYWGQGTTVTVSS
VL: DIVMTQTPLSLSVTPGQPASISCKSSQRLETSTGTTYLNWYLQKPGQSPQLLIYRVSRRFSGVPDRFSGSGSGTDFTLKISRVEAEDVGVYYCLQLLEDPPTFGQGTKLEIK
notes: as for B2
As to B8, the “Binding” value with human CD19 on CHO cells turned out to be 351 FOB. In addition, in the test with human CD19, the Kd was 164 pM and the koff was 8.28e-05 s⁻¹.

B9: CNG-CD19-110 (antibody, V domains shown)
VH: QVQLVQSGAEVKKPGASVKVSCKASGYTFTDYIMHWVRQAPGQGLEWMGYINPYNDGSKYTEKFQGRVTMTSDTSISTAYMELSRLRSDDTAVYYCARGTYYYGPQLFDYWGQGTTVTVSS
VL: DIVMTQTPLSLSVTPGQPASISCKSSQSLETSTGTTYLNWYLQKPGQSPQLLIYRSSKRFSGVPDRFSGSGSGTDFTLKISRVEAEDVGVYYCLQLLEDPPTFGQGTKLEIK
notes: as for B2
Consider B9, for which, in the test with human CD19 on CHO cells, the “Binding” value worked out at 293 FOB. Also, in the test with human CD19, binding was characterised by a dissociation constant (Kd) of 353 pM and the dissociation rate constant (koff) came out at 0.000121 s⁻¹.

B10: CNG-CD19-104 (antibody, V domains shown)
VH: QVQLVQSGAEVKKPGASVKVSCKASGYDFTDYIVHWVRQAPGQGLEWMGYINPYNDGSKYTEKFQGRVTMTSDTSISTAYMELSRLRSDDTAVYYCARGTYYYGPELFDYWGQGTTVTVSS
VL: DIVMTQTPLSLSVTPGQPASISCKSGQSLETSTGTTYLNWYLQKPGQSPQLLIYRVSRRFSGVPDRFSGSGSGTDFTLKISRVEAEDVGVYYCLQLLEDPYTFGQGTKLEIK
notes: as for B2
In the case of B10, the “Binding” value with human CD19 on CHO cells worked out at 327 FOB. In the test with human CD19, binding was put at a Kd of 144 pM and the koff came to 6e-05 s⁻¹.

B11: CNG-CD19-108 (antibody, V domains shown)
VH: QVQLVQSGAEVKKPGASVKVSCKASGYDFTDYIVHWVRQAPGQGLEWMGYINPYNDGSKYTEKFQGRVTMTSDTSISTAYMELSRLRSDDTAVYYCARGTYYYGPQLFDYWGQGTTVTVSS
VL: DIVMTQTPLSLSVTPGQPASISCKSSQSLETVTGTTYLNWYLQKPGQSPQLLIYRVSKRFSGVPDRFSGSGSGTDFTLKISRVEAEDVGVYYCLQLLEDPPTFGQGTKLEIK
notes: as for B2
In the case of B11, the “Binding” value with human CD19 on CHO cells was 319 FOB. In the test with human CD19, this molecule had a Kd of 164 pM and a koff of 5.26e-05 s⁻¹.

B12: CNG-CD19-101 (antibody, V domains shown)
VH: QVQLVQSGAEVKKPGASVKVSCKASGYDFTDYIMHWVRQAPGQGLEWMGYINPYNDGSKYTDKFQERVTMTSDTSISTAYMELSRLRSDDTAVYYCARGTYYYGPELFDYWGQGTTVTVSS
VL: DIVMTQTPLSLSVTPGQPASISCKSSQSLETTTGTTYLNWYLQKPGQSPQLLIYRASKRFSGVPDRFSGSGSGTDFTLKISRVEAEDVGVYYCLQLLEDPYTFGQGTKLEIK
notes: as for B2
In the case of B12, the “Binding” value with human CD19 on CHO cells came out at 296 FOB. In the test with human CD19, this molecule came in with a Kd of 144 pM and a koff of 5.72e-05 s⁻¹.

B13: CNG-CD19-102 (antibody, V domains shown)
VH: QVQLVQSGAEVKKPGASVKVSCKASGYEFTDYIMHWVRQAPGQGLEWMGYINPYNDGSKYTEKFQPRVTMTSDTSISTAYMELSRLRSDDTAVYYCARGTYYYGPQLFDYWGQGTTVTVSS
VL: DIVMTQTPLSLSVTPGQPASISCKSSQSLETSTGTTYLNWYLQKPGQSPQLLIYRVSKRFSGVPDRFSGSGSGTDFTLKISRVEAEDVGVYYCLQLLEDPYTFGQGTKLEIK
notes: as for B2
With B13, in the test with human CD19 on CHO cells, the “Binding” value was 258 FOB. In the test with human CD19, this molecule came in with a Kd of 298 pM and an off-rate constant (koff) of 9.12e-05 s⁻¹.

B14: CNG-CD19-103 (antibody, V domains shown)
VH: QVQLVQSGAEVKKPGASVKVSCKASGYTFTDYIMHWVRQAPGQGLEWMGYINPYNDGSKYTEKFQGRVTMTSDTSISTAYMELSRLRSDDTAVYYCARGTYYYGPQLFDYWGQGTTVTVSS
VL: DIVMTQTPLSLSVTPGQPASISCKSSQSLETATGTTYLNWYLQKPGQSPQLLIYRVSRRFSGVPDRFSGSGSGTDFTLKISRVEAEDVGVYYCLQLLEDPYSFGQGTKLEIK
notes: as for B2
On to B14, for which the “Binding” value with human CD19 on CHO cells was 286 FOB. In the test with human CD19, this molecule displayed a Kd of 106 pM and a koff of 4e-05 s⁻¹.
